Experiment [1] addresses T1, human BMP6 (R&D Systems, Cat #507-BP) (human, UniProt P22004 375-513, limits assumed).
T1 construct: Bought protein (R&D Systems 507-BP or 507-BP/CF); also called hBMP6; hBMP-6
T1 sequence: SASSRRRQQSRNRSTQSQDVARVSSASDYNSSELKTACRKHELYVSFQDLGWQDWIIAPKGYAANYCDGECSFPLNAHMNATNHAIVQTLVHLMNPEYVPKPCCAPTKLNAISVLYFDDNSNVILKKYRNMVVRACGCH
Briefly: SPR (MASS-1), mAb captured on anti-human Fc, hBMP6 in solution, 25 C; 25 C. The procedure: (§1) Equilibrium dissociation constants (KD values) for human and mouse BMP6 binding to purified anti-BMP6 monoclonal antibodies of this invention were determined using a real-time surface plasmon resonance (SPR) biosensor instrument, MASS-1. All binding studies were performed in 10 mM HEPES, 150 mM NaCl, 3 mM EDTA, 1 μg/mL Heparin, and 0.05% v/v Surfactant Tween-20, pH 7.4 (HBS-EHT) running buffer at 25° C. and 37° C. The HCA sensor surface was first derivatized by amine coupling the monoclonal mouse anti-human Fc antibody (GE, #BR100839) and anti-BMP6 monoclonal antibodies were individually captured. Different concentrations of human BMP6 reagents (hBMP6; R&D Systems, Cat #507-BP; 60 nM-0.94 nM; 4-fold serial dilution) or mouse BMP6 (mBMP6; R&D Systems, Cat #6325-BM; 60 nM and 15 nM) prepared in HBS-EHT running buffer were injected over the captured anti-BMP6 monoclonal antibody for 4 minutes at a flow rate of 30 μL/minute, while the dissociation of BMP6 reagent bound to captured anti-BMP6 monoclonal antibody was monitored for 10 minutes in HBS-EHT running buffer. Kinetic association (kₐ) and dissociation (kd) rate constants were determined by fitting the real-time binding sensorgrams to a 1:1 binding model with mass transport limitation using Scrubber 2.0c software. […]

The target of experiment [2] is T1, human BMP6 (R&D Systems, Cat #507-BP). Briefly: competition ELISA, antibody titrated against 2.5 nM biot-hBMP6, plate-coated hHJV-hFc as competitor. The procedure:
Experiments were carried out using the following procedure. Receptors were coated in Hank's Balanced Salt Solution (HBSS) separately at a concentration of 5 μg/mL for hHJV-hFc and […] for hActR2a-hFc on a 96-well microtiter plate overnight at 4° C. […] In other microtiter plates, a constant amount of 2.5 nM of biot-BMP6 (for HJV capture) or 1.5 nM biot-BMP6 (for ActR2a capture) protein was titrated with anti-BMP6 antibodies or isotype control antibodies ranging from 5.1 pM to 300 nM in serial dilution in HBSS with 1.0% BSA and […] heparin. These antibody-protein complexes, after a one-hour incubation, were transferred to the microtiter plate coated with hHJV-hFc or hActR2a-hFc. After two hours of incubation at room temperature, the wells were washed, and plate-bound biot-BMP6 was detected with neutravidin conjugated with horseradish peroxidase (HRP) (Thermo Scientific, Cat #31030). The plates were then developed using TMB substrate solution (BD Biosciences, Cat #555214) according to manufacturer's recommendation and absorbance at 450 nm was measured on a Victor X5 plate reader.
Data analysis was performed using a sigmoidal dose-response model within Prism™ software (GraphPad). […]
A general note: An ELISA detects its analyte on a solid surface through an enzyme-linked reagent.

A further experiment has as its target T2, Human BMP12/GDF7 (human, UniProt Q7Z4P5 322-450, limits assumed).
T2 sequence (looked up): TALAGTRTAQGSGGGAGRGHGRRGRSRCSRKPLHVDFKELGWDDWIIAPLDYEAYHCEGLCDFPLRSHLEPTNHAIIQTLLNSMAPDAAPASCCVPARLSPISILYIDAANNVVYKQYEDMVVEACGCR
Briefly: BLI (Octet HTX), mAb captured on Protein A sensor, 100 nM ligand, 25 C. Background: BLI is a label-free optical method that tracks binding on a fibre tip over time.

A further experiment has as its target T3, Human BMP3b (human, UniProt P55107 369-478, limits assumed).
T3 sequence (looked up): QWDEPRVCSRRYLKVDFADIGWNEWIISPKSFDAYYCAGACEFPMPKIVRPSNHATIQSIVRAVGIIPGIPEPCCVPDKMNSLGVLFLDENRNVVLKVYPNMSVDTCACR
Described as above.

For experiment [3], the target named is T1, human BMP6 (R&D Systems, Cat #507-BP). Briefly: SPR (MASS-1), mAb captured on anti-human Fc, hBMP6 in solution, 37 C; 37 C. The procedure: as §1

Residue numbers refer to the chain shown, from its start.

B1: H4H17871P (antibody, V domains shown)
VH: EVQLVESGGGLVQPGGSLRLSCAASGFTFNNYAMSWVRQAPGKGLEWVSAISGSGDSTYYADSVKGRFTISRDNSKNTLYLQMNSLRAEDTAVYYCAKRSRSSPFDPWGQGTLVTVSS
VL: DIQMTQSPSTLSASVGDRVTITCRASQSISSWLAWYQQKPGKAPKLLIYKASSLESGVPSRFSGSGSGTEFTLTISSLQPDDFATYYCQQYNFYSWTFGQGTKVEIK
notes: Fully human antibody; also called anti-BMP6 monoclonal antibody; BMP6 antibody of the invention
For the molecule B1, the Kd in experiment [1] is 0.195 nM. In experiment [2], the IC50 is 1.61 nM. The binding response in the experiment with Human BMP12/GDF7 amounted to 0.01 nm; with Human BMP3b, 0.19 nm.

B2: H4H17855P (antibody, V domains shown)
VH: B1 VH with N30S, N31S, D56G, S57R, A61T, I70M, S100P, R101Y, S102N
VL: EIVLTQSPGTLSLSPGEGATLSCRASQSVSSSYLAWYQQKPGQAPRLLIYGASSRATGIPDRFSGSGSGTDFTLTISRLEPEDFVVYYCQHFGGTPFTFGGGTKVEIK
notes: as for B1
In experiment [3], B2 registered a koff of 8.17e-05 s⁻¹.

What is called Kd is the equilibrium constant for the complex coming apart. In general, IC50 refers to the concentration needed to halve the response being measured. In general, koff refers to the rate constant with which the complex falls apart. Low values mean a long-lived complex, high ones a short-lived complex.
